Assay results taken from PMC3001161 (Molecular cell, 2010).

T1: Dcn1 potentiating neddylation (PONY) domain, Dcn1^P (budding yeast, UniProt Q12395 70-269)
T1 sequence (looked up): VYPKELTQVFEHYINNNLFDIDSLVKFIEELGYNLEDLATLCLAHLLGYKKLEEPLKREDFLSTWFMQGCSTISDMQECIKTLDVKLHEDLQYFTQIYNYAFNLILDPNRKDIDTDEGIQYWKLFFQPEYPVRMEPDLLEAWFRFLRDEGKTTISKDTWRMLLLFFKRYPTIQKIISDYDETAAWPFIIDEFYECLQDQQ

B1: Dcn1 potentiating neddylation (PONY) domain, Dcn1^P (domain or fragment)
chain: T1 sequence (looked up)
B2: full-length Dcn1 (natural protein, budding yeast, UniProt Q12395 1-269, looked up)
chain: MSNNKIKRKDASPEQEAIESFTSLTKCDPKVSRKYLQRNHWNINYALNDYYDKEIGTFTDEVSTVAHPPVYPKELTQVFEHYINNNLFDIDSLVKFIEELGYNLEDLATLCLAHLLGYKKLEEPLKREDFLSTWFMQGCSTISDMQECIKTLDVKLHEDLQYFTQIYNYAFNLILDPNRKDIDTDEGIQYWKLFFQPEYPVRMEPDLLEAWFRFLRDEGKTTISKDTWRMLLLFFKRYPTIQKIISDYDETAAWPFIIDEFYECLQDQQ
B3: isolated Cdc53 WHB subdomain (Cdc53^WHB) (domain or fragment, budding yeast, UniProt Q12018 730-815, looked up)
chain: NKRLTEDERIEKELNTERQIFLEACIVRIMKAKRNLPHTTLVNECIAQSHQRFNAKVSMVKRAIDSLIQKGYLQRGDDGESYAYLA

Assays:
Assay in all cases: ITC
[1] = target: Cdc53^C+-Hrt1^ΔR complex (budding yeast)
[2] = target: B3
[3] = target: Cdc53^C+-Hrt1 complex (budding yeast) (UniProt Q12018)
[4] = target: T1, Dcn1 potentiating neddylation (PONY) …

stoichiometry N [1] | stoichiometry N [2] | stoichiometry N [3] | Kd [4] | Binder
1 |  |  |  | B1
1 | 1 | 1 |  | B2
 |  |  | 227 nM | B3
